Assay results from patent publication US20230242654A1, “REAGENTS FOR EXPANDING CELLS EXPRESSING RECOMBINANT RECEPTORS” (Juno Therapeutics, Inc., priority 2017, published 2023).

System: anti-BCMA CARs
Assay: BCMA-Fc fusion protein binding to CAR T cells by flow cytometry
Details: versus T cells expressing CARs that do not bind BCMA
Procedure: The clone encoding the recombinant human BCMA-Fc fusion construct with the N-terminal CD33 leader sequence (SEQ ID NO: 30) was inserted into an expression vector and expressed in HEK 293 cells. Supernatant from the transiently transfected HEK cells was harvested after 5 days and the BCMA-FC fusion protein was purified by protein A affinity chromatography and size exclusion chromatography (SEC). The resulting BCMA-Fc fusion protein was determined to have a purity of greater than 95% as assessed by gel permeation chromatography.

B1: BCMA-Fc fusion protein: extracellular domain of human BCMA and a human IgG1 Fc connected with a linker (SEQ ID NO: 35) (protein)
chain: MLQMAGQCSQNEYFDSLLHACIPCQLRCSSNTPPLTCQRYCNASVTNSVKGTNAGGGGSPKSSDKTHTCPPCPAPEAEGAPSVFLFPPKPKDTLMISRTPEVTCVVVDVSHEDPEVKFNWYVDGVEVHNAKTKPREEQYNSTYRVVSVLTVLHQDWLNGKEYKCKVSNKALPSSIEKTISKAKGQPREPQVYTLPPSRDELTKNQVSLTCLVKGFYPSDIAVEWESNGQPENNYKTTPPVLDSDGSFFLYSKLTVDKSRWQQGNVFSCSVMHEALHNHYTQKSLSLSPGK
modifications: BCMA-Fc fusion polypeptide
binding of BCMA-Fc to CAR expressing T cells: specifically bound to anti-BCMA CAR expressing T cells
